The source of these data is patent US20250163145A1 (SHIONOGI, published 2025).

Where no end group is shown, it is not given here.

For the assay, the target named is T1, epitope peptide Cys-CE3C long (also: biotin label, site not given here).
T1 peptide: CSVNVDKQPKYEYSL
Put plainly: competitive ELISA, unlabeled vs biotin-labeled peptide, antibody on anti-human IgG plate. The protocol: A diluted solution of the obtained recombinant humanized antibody, a biotin-labeled immunogen peptide, and Streptavidin-HRP (manufactured by PIERCE) were added to an anti-human IgG antibody-immobilized plate, and reacted overnight at 4° C. […] Next, a recombinant human antibody at the dilution rate, a biotin-labeled immunogen peptide, and Streptavidin-HRP (manufactured by PIERCE) were added. At the same time, a dilution series of unlabeled immunogenic peptide was added and reacted overnight at 4° C. After washing twice with ELISA wash buffer, TMB-Substrate Chromogen (manufactured by Thermo Fisher Scientific) was added to develop color, the reaction was stopped with an equal amount of 0.5N sulfuric acid, and the absorbance at 450 nm was measured. The concentration of the unlabeled peptide which attenuated the signal of the biotin-labeled peptide by half was defined as the affinity (IC50).

B1: h15H11-20 (antibody, human IgG4 S228P, kappa, V domains shown)
VH: QVQLVQSGSELKKPGASVKVSCKASGYTFTDYNMHWVRQAPGRSLEWMGRINPKNGVINSNEKFKDRFVFSLDTSVSTAYLQISSLKAEDTAVYYCAPSYYGGNDDAYWGQGTLVTVSS
VL: DIVLTQSPASLAVSPGQRATITCRASESVDNYGISFMNWFQQKPGQPPKLLIYAASSQGSGVPARFSGSGSGTDFTLTINPMEANDTANYYCQQSKEFPWTFGGGTKVEIKR
notes: hIgG4Pro/hIgK
By IC50 is commonly meant the point on the concentration scale where inhibition reaches its midpoint. A higher IC50 goes with a need for much substance. B1 showed an IC50 of 0.77 nM.

B2: h15H11-30 (antibody, human IgG4 S228P, kappa, V domains shown)
VH: QVQLVQSGSELKKPGASVKVSCKASGYTFTDYNMHWVRQAPGRSLEWMGRINPKNGVINSNEKFKDRFVFSLDTSVSTAYLQISSLKAEDTAVYYCAPSYYGGDTDAYWGQGTLVTVSS
VL: DIVLTQSPASLAVSPGQRATITCRASDSVDNYGISFLNWFQQKPGQPPKLLIYAASSQGSGVPARFSGSGSGTDFTLTINPMEANDTANYYCQQSKEFPWTFGGGTKVEIKR
notes: hIgG4Pro/hIgK
With B2, the IC50 came out at 0.92 nM.

B3: h15H11-35 (antibody, human IgG4 S228P, kappa, V domains shown)
VH: QVQLVQSGSELKKPGASVKVSCKASGYTFTDYNMHWVRQAPGRSLEWMGRINPKNGVINSNEKFKDRFVFSLDTSVSTAYLQISSLKAEDTAVYYCAPSYYGGNQDAYWGQGTLVTVSS
VL: DIVLTQSPASLAVSPGQRATITCRASDSVDNYGISFLNWFQQKPGQPPKLLIYAASSQGSGVPARFSGSGSGTDFTLTINPMEANDTANYYCQQSKEFPWTFGGGTKVEIKR
notes: hIgG4Pro/hIgK
Molecule B3 showed an IC50 of 1 nM. The IC50 values of the last two molecules are within 1.5-fold of each other.

B4: h15H11-36 (antibody, human IgG4 S228P, kappa, V domains shown)
VH: QVQLVQSGSELKKPGASVKVSCKASGYTFTDYNMHWVRQAPGRSLEWMGRINPKNGVINLNEKFKDRFVFSLDTSVSTAYLQISSLKAEDTAVYYCAPSYYGGNTDAYWGQGTLVTVSS
VL: DIVLTQSPASLAVSPGQRATITCRASDSVDNYGISFLNWFQQKPGQPPKLLIYAASSQGSGVPARFSGSGSGTDFTLTINPMEANDTANYYCQQSKEFPWTFGGGTKVEIKR
notes: hIgG4Pro/hIgK
For the molecule B4, the IC50 was 1.02 nM.

B5: h15H11-22 (antibody, human IgG4 S228P, kappa, V domains shown)
VH: QVQLVQSGSELKKPGASVKVSCKASGYTFTEYNMHWVRQAPGRSLEWMGRINPKNGVINSNEKFKDRFVFSLDTSVSTAYLQISSLKAEDTAVYYCAPSYYGGDTDAYWGQGTLVTVSS
VL: DIVLTQSPASLAVSPGQRATITCRASESVDNYGISFMNWFQQKPGQPPKLLIYAASSQGSGVPARFSGSGSGTDFTLTINPMEANDTANYYCQQSKEFPWTFGGGTKVEIKR
notes: hIgG4Pro/hIgK
For the molecule B5, the IC50 was 0.8 nM.

B6: h15H11-28 (antibody, human IgG4 S228P, kappa, V domains shown)
VH: QVQLVQSGSELKKPGASVKVSCKASGYTFTEYNMHWVRQAPGRSLEWMGRINPKNGVINSNEKFKDRFVFSLDTSVSTAYLQISSLKAEDTAVYYCAPSYYGGNSDAYWGQGTLVTVSS
VL: DIVLTQSPASLAVSPGQRATITCRASESVDNYGISFMNWFQQKPGQPPKLLIYAASSQGSGVPARFSGSGSGTDFTLTINPMEANDTANYYCQQSKEFPWTFGGGTKVEIKR
notes: hIgG4Pro/hIgK
For the molecule B6, the concentration for half-maximal inhibition (IC50) is 0.91 nM.

B7: h15H11-23 (antibody, human IgG4 S228P, kappa, V domains shown)
VH: QVQLVQSGSELKKPGASVKVSCKASGYTFTEYNMHWVRQAPGRSLEWMGRINPKNGVINSNEKFKDRFVFSLDTSVSTAYLQISSLKAEDTAVYYCAPSYYGGNSDAYWGQGTLVTVSS
VL: DIVLTQSPASLAVSPGQRATITCRASDSVDNYGISFLNWFQQKPGQPPKLLIYAASSQGSGVPARFSGSGSGTDFTLTINPMEANDTANYYCQQSKEFPWTFGGGTKVEIKR
notes: hIgG4Pro/hIgK
B7 showed an IC50 of 0.83 nM.

B8: h15H11-38 (antibody, human IgG4 S228P, kappa, V domains shown)
VH: QVQLVQSGSELKKPGASVKVSCKASGYTFTDYNMHWVRQAPGRSLEWMGRINPKNGVIKSNEKFKDRFVFSLDTSVSTAYLQISSLKAEDTAVYYCAPSYYGGNTDAYWGQGTLVTVSS
VL: DIVLTQSPASLAVSPGQRATITCRVSDSVDNYGISFLNWFQQKPGQPPKLLIYAASSQGSGVPARFSGSGSGTDFTLTINPMEANDTANYYCQQSKEFPWTFGGGTKVEIKR
notes: hIgG4Pro/hIgK
For B8, the IC50 was 1.04 nM.

B9: h15H11-26 (antibody, human IgG4 S228P, kappa, V domains shown)
VH: QVQLVQSGSELKKPGASVKVSCKASGYTFTDYNMHWVRQAPGRSLEWMGRINPKNGVINSNEKFKDRFVFSLDTSVSTAYLQISSLKAEDTAVYYCAPSYYGGDTDAYWGQGTLVTVSS
VL: DIVLTQSPASLAVSPGQRATITCRVSDSVDNYGISFLNWFQQKPGQPPKLLIYAASSQGSGVPARFSGSGSGTDFTLTINPMEANDTANYYCQQSKEFPWTFGGGTKVEIKR
notes: hIgG4Pro/hIgK
The molecule B9 came in with a 50% inhibitory concentration (IC50) of 0.88 nM.

B10: h15H11-32 (antibody, human IgG4 S228P, kappa, V domains shown)
VH: QVQLVQSGSELKKPGASVKVSCKASGYTFTEYNMHWVRQAPGRSLEWMGRINPKNGVINSNEKFKDRFVFSLDTSVSTAYLQISSLKAEDTAVYYCAPSYYGGNSDAYWGQGTLVTVSS
VL: DIVLTQSPASLAVSPGQRATITCRVSDSVDNYGISFLNWFQQKPGQPPKLLIYAASSQGSGVPARFSGSGSGTDFTLTINPMEANDTANYYCQQSKEFPWTFGGGTKVEIKR
notes: hIgG4Pro/hIgK
Molecule B10 registered a concentration for half-maximal inhibition (IC50) of 0.95 nM.

B11: h15H11-33 (antibody, human IgG4 S228P, kappa, V domains shown)
VH: QVQLVQSGSELKKPGASVKVSCKASGYTFTDYNMHWVRQAPGRSLEWMGRINPKNGVIQSNEKFKDRFVFSLDTSVSTAYLQISSLKAEDTAVYYCAPSYYGGNSDAYWGQGTLVTVSS
VL: DIVLTQSPASLAVSPGQRATITCRASDSVDNYGISFLNWFQQKPGQPPKLLIYAASSQGSGVPARFSGSGSGTDFTLTINPMEANDTANYYCQQSKEFPWTFGGGTKVEIKR
notes: hIgG4Pro/hIgK
For the molecule B11, the IC50 stood at 0.98 nM.

B12: h15H11-25 (antibody, human IgG4 S228P, kappa, V domains shown)
VH: QVQLVQSGSELKKPGASVKVSCKASGYTFTEYNMHWVRQAPGRSLEWMGRINPKNGVILSNEKFKDRFVFSLDTSVSTAYLQISSLKAEDTAVYYCAPSYYGGNTDAYWGQGTLVTVSS
VL: DIVLTQSPASLAVSPGQRATITCRASESVDNYGISFMNWFQQKPGQPPKLLIYAASSQGSGVPARFSGSGSGTDFTLTINPMEANDTANYYCQQSKEFPWTFGGGTKVEIKR
notes: hIgG4Pro/hIgK
As to B12, the IC50 is 0.86 nM.

B13: h15H11-39 (antibody, human IgG4 S228P, kappa, V domains shown)
VH: QVQLVQSGSELKKPGASVKVSCKASGYTFTDYNMHWVRQAPGRSLEWMGRINPKNGVINYNEKFKDRFVFSLDTSVSTAYLQISSLKAEDTAVYYCAPSYYGGNTDAYWGQGTLVTVSS
VL: DIVLTQSPASLAVSPGQRATITCRASDSVDNYGISFLNWFQQKPGQPPKLLIYAASSQGSGVPARFSGSGSGTDFTLTINPMEANDTANYYCQQSKEFPWTFGGGTKVEIKR
notes: hIgG4Pro/hIgK
Regarding B13, the IC50 came out at 1.05 nM.

B14: h15H11-27 (antibody, human IgG4 S228P, kappa, V domains shown)
VH: QVQLVQSGSELKKPGASVKVSCKASGYTFTDYNMHWVRQAPGRSLEWMGRINPKNGVILSNEKFKDRFVFSLDTSVSTAYLQISSLKAEDTAVYYCAPSYYGGNTDAYWGQGTLVTVSS
VL: DIVLTQSPASLAVSPGQRATITCRVSDSVDNYGISFLNWFQQKPGQPPKLLIYAASSQGSGVPARFSGSGSGTDFTLTINPMEANDTANYYCQQSKEFPWTFGGGTKVEIKR
notes: hIgG4Pro/hIgK
On to B14, for which the IC50 worked out at 0.91 nM. This IC50 and that of the molecule before are within 1.5-fold of each other.

B15: h15H11-31 (antibody, human IgG4 S228P, kappa, V domains shown)
VH: QVQLVQSGSELKKPGASVKVSCKASGYTFTEYNMHWVRQAPGRSLEWMGRINPKNGVIQSNEKFKDRFVFSLDTSVSTAYLQISSLKAEDTAVYYCAPSYYGGNSDAYWGQGTLVTVSS
VL: DIVLTQSPASLAVSPGQRATITCRASESVDNYGISFMNWFQQKPGQPPKLLIYAASSQGSGVPARFSGSGSGTDFTLTINPMEANDTANYYCQQSKEFPWTFGGGTKVEIKR
notes: hIgG4Pro/hIgK
As for B15, the IC50 was found to be 0.93 nM. This IC50 and that of the molecule before are within 1.5-fold of each other.

B16: h15H11-37 (antibody, human IgG4 S228P, kappa, V domains shown)
VH: QVQLVQSGSELKKPGASVKVSCKASGYTFTDYNMHWVRQAPGRSLEWMGRINPKNGVINSNEKFKDRFVFSLDTSVSTAYLQISSLKAEDTAVYYCAPSYYGGNQDAYWGQGTLVTVSS
VL: DIVLTQSPASLAVSPGQRATITCRVSDSVDNYGISFLNWFQQKPGQPPKLLIYAASSQGSGVPARFSGSGSGTDFTLTINPMEANDTANYYCQQSKEFPWTFGGGTKVEIKR
notes: hIgG4Pro/hIgK
Consider B16, for which the IC50 was 1.04 nM. This IC50 and that of the molecule before are within 1.5-fold of each other.

B17: h15H11-29 (antibody, human IgG4 S228P, kappa, V domains shown)
VH: QVQLVQSGSELKKPGASVKVSCKASGYTFTDYNMHWVRQAPGRSLEWMGRINPKNGVILSNEKFKDRFVFSLDTSVSTAYLQISSLKAEDTAVYYCAPSYYGGNTDAYWGQGTLVTVSS
VL: DIVLTQSPASLAVSPGQRATITCRASESVDNYGISFMNWFQQKPGQPPKLLIYAASSQGSGVPARFSGSGSGTDFTLTINPMEANDTANYYCQQSKEFPWTFGGGTKVEIKR
notes: hIgG4Pro/hIgK
As to B17, the half-inhibitory concentration (IC50) stood at 0.91 nM. The IC50 values of the last two molecules are within 1.5-fold of each other.

B18: h15H11-24 (antibody, human IgG4 S228P, kappa, V domains shown)
VH: QVQLVQSGSELKKPGASVKVSCKASGYTFTEYNMHWVRQAPGRSLEWMGRINPKNGVIQSNEKFKDRFVFSLDTSVSTAYLQISSLKAEDTAVYYCAPSYYGGNSDAYWGQGTLVTVSS
VL: DIVLTQSPASLAVSPGQRATITCRASDSVDNYGISFLNWFQQKPGQPPKLLIYAASSQGSGVPARFSGSGSGTDFTLTINPMEANDTANYYCQQSKEFPWTFGGGTKVEIKR
notes: hIgG4Pro/hIgK
With B18, the half-inhibitory concentration (IC50) turned out to be 0.85 nM. This IC50 and that of the molecule before are within 1.5-fold of each other.

B19: h15H11-21 (antibody, human IgG4 S228P, kappa, V domains shown)
VH: QVQLVQSGSELKKPGASVKVSCKASGYTFTEYNMHWVRQAPGRSLEWMGRINPKNGVILSNEKFKDRFVFSLDTSVSTAYLQISSLKAEDTAVYYCAPSYYGGNTDAYWGQGTLVTVSS
VL: DIVLTQSPASLAVSPGQRATITCRASDSVDNYGISFLNWFQQKPGQPPKLLIYAASSQGSGVPARFSGSGSGTDFTLTINPMEANDTANYYCQQSKEFPWTFGGGTKVEIKR
notes: hIgG4Pro/hIgK
B19 registered a half-maximal inhibitory concentration (IC50) of 0.8 nM.

B20: h15H11-34 (antibody, human IgG4 S228P, kappa, V domains shown)
VH: QVQLVQSGSELKKPGASVKVSCKASGYTFTEYNMHWVRQAPGRSLEWMGRINPKNGVINSNEKFKDRFVFSLDTSVSTAYLQISSLKAEDTAVYYCAPSYFGGQSDAYWGQGTLVTVSS
VL: DIVLTQSPASLAVSPGQRATITCRASDSVDNYGISFLNWFQQKPGQPPKLLIYAASSQGSGVPARFSGSGSGTDFTLTINPMEANDTANYYCQQSKEFPWTFGGGTKVEIKR
notes: hIgG4Pro/hIgK
As for B20, the half-maximal inhibitory concentration (IC50) turned out to be 0.99 nM.
